IntAct's records for PubMed 31515488

B1: UPF0688 protein C1orf174 (Homo sapiens), Q8IYL3 (parent)
chain: MRSRKLTGAVRSSARLKARSCSAARLASAQEVAGSTSAKTACLTSSSHKATDTRTSKKFKCDKGHLVKSELQKLVPKNDSASLPKVTPETPCENEFAEGSALLPGSEAGVSVQQGAASLPLGGCRVVSDSRLAKTRDGLSVPKHSAGSGAEESNSSSTVQKQNEPGLQTEDVQKPPLQMDNSVFLDDDSNQPMPVSRFFGNVELMQDLPPASSSCPSMSRREFRKMHFRAKDDDDDDDDDAEM
B2: Protein SPMIP9 (Homo sapiens), Q96LM6 (parent)
chain: MAGVKYPGQDPVDLDIYQSSHMVDYQPYRKHKYSRVTPQEQAKLDAQLRDKEFYRPIPNPNPKLTDGYPAFKRPHMTAKDLGLPGFFPSQEHEATREDERKFTSTCHFTYPASHDLHLAQGDPNQVLQSADFPCLVDPKHQPAAEMAKGYLLLPGCPCLHCHIVKVPILNRWGPLMPFYQ
partner: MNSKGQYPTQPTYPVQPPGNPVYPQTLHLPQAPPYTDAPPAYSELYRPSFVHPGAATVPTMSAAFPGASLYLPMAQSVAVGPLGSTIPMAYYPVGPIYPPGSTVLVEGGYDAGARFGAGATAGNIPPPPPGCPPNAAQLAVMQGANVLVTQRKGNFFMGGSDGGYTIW
B3: C-C motif chemokine 4 (Homo sapiens), P13236 (parent)
chain: MKLCVTVLSLLMLVAAFCSPALSAPMGSDPPTACCFSYTARKLPRNFVVDYYETSSLCSQPAVVFQTKRSKQVCADPSESWVQEYVYDLELN
partner: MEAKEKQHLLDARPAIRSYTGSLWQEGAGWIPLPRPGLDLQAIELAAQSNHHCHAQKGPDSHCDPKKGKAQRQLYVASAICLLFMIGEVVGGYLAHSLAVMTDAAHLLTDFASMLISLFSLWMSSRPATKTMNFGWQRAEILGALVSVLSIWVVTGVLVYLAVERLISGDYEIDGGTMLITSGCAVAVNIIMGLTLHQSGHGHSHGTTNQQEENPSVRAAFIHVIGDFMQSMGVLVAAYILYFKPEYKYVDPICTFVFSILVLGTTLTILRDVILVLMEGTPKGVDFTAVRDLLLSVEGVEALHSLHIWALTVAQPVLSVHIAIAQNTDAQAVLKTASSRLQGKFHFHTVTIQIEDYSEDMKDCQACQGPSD
B4: Serine/threonine-protein phosphatase 6 regulatory ankyrin repeat subunit B (Homo sapiens), Q8N8A2 (parent)
chain: MAVLKLTDQPPLVQAIFSGDPEEIRMLIHKTEDVNTLDSEKRTPLHVAAFLGDAEIIELLILSGARVNAKDNMWLTPLHRAVASRSEEAVQVLIKHSADVNARDKNWQTPLHVAAANKAVKCAEVIIPLLSSVNVSDRGGRTALHHAALNGHVEMVNLLLAKGANINAFDKKDRRALHWAAYMGHLDVVALLINHGAEVTCKDKKGYTPLHAAASNGQINVVKHLLNLGVEIDEINVYGNTALHIACYNGQDAVVNELIDYGANVNQPNNNGFTPLHFAAASTHGALCLELLVNNGADVNIQSKDGKSPLHMTAVHGRFTRSQTLIQNGGEIDCVDKDGNTPLHVAARYGHELLINTLITSGADTAKCGIHSMFPLHLAALNAHSDCCRKLLSSGFEIDTPDKFGRTCLHAAAAGGNVECIKLLQSSGADFHKKDKCGRTPLHYAAANCHFHCIETLVTTGANVNETDDWGRTALHYAAASDMDRNKTILGNAHDNSEELERARELKEKEATLCLEFLLQNDANPSIRDKEGYNSIHYAAAYGHRQCLELLLERTNSGFEESDSGATKSPLHLAAYNGHHQALEVLLQSLVDLDIRDEKGRTALDLAAFKGHTECVEALINQGASIFVKDNVTKRTPLHASVINGHTLCLRLLLEIADNPEAVDVKDAKGQTPLMLAVAYGHIDAVSLLLEKEANVDTVDILGCTALHRGIMTGHEECVQMLLEQEVSILCKDSRGRTPLHYAAARGHATWLSELLQMALSEEDCCFKDNQGYTPLHWACYNGNENCIEVLLEQKCFRKFIGNPFTPLHCAIINDHGNCASLLLGAIDSSIVSCRDDKGRTPLHAAAFADHVECLQLLLRHSAPVNAVDNSGKTALMMAAENGQAGAVDILVNSAQADLTVKDKDLNTPLHLACSKGHEKCALLILDKIQDESLINEKNNALQTPLHVAARNGLKVVVEELLAKGACVLAVDENASRSNGPRSTPGTAVQKEE
B5: Zyxin (Homo sapiens), Q15942 (parent)
chain: MAAPRPSPAISVSVSAPAFYAPQKKFGPVVAPKPKVNPFRPGDSEPPPAPGAQRAQMGRVGEIPPPPPEDFPLPPPPLAGDGDDAEGALGGAFPPPPPPIEESFPPAPLEEEIFPSPPPPPEEEGGPEAPIPPPPQPREKVSSIDLEIDSLSSLLDDMTKNDPFKARVSSGYVPPPVATPFSSKSSTKPAAGGTAPLPPWKSPSSSQPLPQVPAPAQSQTQFHVQPQPQPKPQVQLHVQSQTQPVSLANTQPRGPPASSPAPAPKFSPVTPKFTPVASKFSPGAPGGSGSQPNQKLGHPEALSAGTGSPQPPSFTYAQQREKPRVQEKQHPVPPPAQNQNQVRSPGAPGPLTLKEVEELEQLTQQLMQDMEHPQRQNVAVNELCGRCHQPLARAQPAVRALGQLFHIACFTCHQCAQQLQGQQFYSLEGAPYCEGCYTDTLEKCNTCGEPITDRMLRATGKAYHPHCFTCVVCARPLEGTSFIVDQANRPHCVPDYHKQYAPRCSVCSEPIMPEPGRDETVRVVALDKNFHMKCYKCEDCGKPLSIEADDNGCFPLDGHVLCRKCHTARAQT

Variants of: B1
Details: with ikzf1_human IKZF1, Q13422
Chain of ikzf1_human IKZF1, Q13422 (Q13422 whole entry): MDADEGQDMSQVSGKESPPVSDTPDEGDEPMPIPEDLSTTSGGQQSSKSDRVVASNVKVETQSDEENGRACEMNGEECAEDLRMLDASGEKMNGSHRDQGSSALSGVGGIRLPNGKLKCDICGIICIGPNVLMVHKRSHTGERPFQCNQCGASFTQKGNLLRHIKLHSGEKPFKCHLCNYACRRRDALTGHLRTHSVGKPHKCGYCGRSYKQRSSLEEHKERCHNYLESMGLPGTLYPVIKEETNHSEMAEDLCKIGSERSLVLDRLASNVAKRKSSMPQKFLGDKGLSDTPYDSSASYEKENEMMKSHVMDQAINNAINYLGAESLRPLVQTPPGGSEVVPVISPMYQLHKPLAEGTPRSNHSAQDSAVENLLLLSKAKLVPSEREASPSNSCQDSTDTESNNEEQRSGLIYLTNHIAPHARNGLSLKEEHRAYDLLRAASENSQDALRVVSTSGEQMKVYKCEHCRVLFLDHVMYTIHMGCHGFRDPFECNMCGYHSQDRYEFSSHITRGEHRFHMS

| effect of a mutation on the interaction | Variant |
| --- | --- |
| with no effect | S82A |
| with no effect | V195M |

Variants of: B2
Details: with dazp2_human DAZAP2, Q15038

| effect of a mutation on the interaction | Variant |
| --- | --- |
| with no effect | P177S |
| with no effect | Y68H |
| with no effect | I16V |

Variants of: B3
Details: with znt2_human SLC30A2, Q9BRI3

| effect of a mutation on the interaction | Variant |
| --- | --- |
| with no effect | C18R |
| disrupting interaction strength | A21V |
| disrupting interaction strength | A16T |

Variants of: B4
Details: with wwp2_human WWP2, O00308
Chain of wwp2_human WWP2, O00308 (O00308 whole entry): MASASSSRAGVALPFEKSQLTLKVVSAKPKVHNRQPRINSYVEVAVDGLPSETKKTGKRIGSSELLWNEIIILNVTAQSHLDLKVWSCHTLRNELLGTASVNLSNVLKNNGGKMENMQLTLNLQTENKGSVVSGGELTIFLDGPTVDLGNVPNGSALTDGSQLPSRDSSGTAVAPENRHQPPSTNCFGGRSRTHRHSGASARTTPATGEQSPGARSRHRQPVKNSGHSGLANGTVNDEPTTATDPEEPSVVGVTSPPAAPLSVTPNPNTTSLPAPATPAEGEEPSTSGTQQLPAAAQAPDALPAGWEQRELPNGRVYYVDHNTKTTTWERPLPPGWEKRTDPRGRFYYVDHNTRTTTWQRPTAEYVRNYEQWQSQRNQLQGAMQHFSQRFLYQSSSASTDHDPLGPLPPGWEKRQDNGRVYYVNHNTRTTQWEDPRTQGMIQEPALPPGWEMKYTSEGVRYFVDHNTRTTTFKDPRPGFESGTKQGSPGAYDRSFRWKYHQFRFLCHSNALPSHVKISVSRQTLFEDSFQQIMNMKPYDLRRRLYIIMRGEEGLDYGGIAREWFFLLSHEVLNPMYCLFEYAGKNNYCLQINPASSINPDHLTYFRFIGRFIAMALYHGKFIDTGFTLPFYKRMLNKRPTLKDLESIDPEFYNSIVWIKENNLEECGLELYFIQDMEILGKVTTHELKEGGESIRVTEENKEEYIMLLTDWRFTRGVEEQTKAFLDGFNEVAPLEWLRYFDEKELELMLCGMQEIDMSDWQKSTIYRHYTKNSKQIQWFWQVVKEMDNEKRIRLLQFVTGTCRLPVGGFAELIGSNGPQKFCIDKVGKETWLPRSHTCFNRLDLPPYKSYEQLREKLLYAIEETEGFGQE

| effect of a mutation on the interaction | Variant |
| --- | --- |
| disrupting interaction strength | R80W |

Variants of: B5
Details: with pf21a_human PHF21A

| effect of a mutation on the interaction | Variant |
| --- | --- |
| with no effect | R563Q |
| with no effect | R489W |
